From patent US10357573B2, “Block copolymer conjugate of physiologically active substance” (Nippon Kayaku Kabushiki Kaisha, priority 2015, dated 2019)

Key:
[1] = Light scattering intensity of 1 mg/mL aqueous solution, relative to toluene; assay type: physicochemical
Description: Regarding the measurement sample for the scattering intensity measurement, a solution obtained by adding ultrapure water to a physiologically active substance-conjugated block copolymer to obtain a concentration of 1 mg/mL, dissolving the block copolymer by irradiating the mixture with ultrasonic waves for 10 minutes under ice cooling, and then filtering the solution through a 0.2-μm membrane filter, was used.
Toluene (manufactured by Junsei Chemical Co., Ltd., special grade) that was used for the measurement of the light scattering intensity, was used after being filtered three times through a 0.2-μm membrane filter.

[2] = test system: human pancreatic cancer BxPC3; test: Test Example C-1 intratumor distribution test; assay type: in vivo, nude mouse; details: 5 mg/kg as converted to 2-(2-aminoethoxy)-9-(diethylamino)-5H-benzo[a]phenoxazin-5-one, iv once, one hour after administration
Source text: (§1) A tumor mass of human pancreatic cancer BxPC3 that had been subcultured by subcutaneous transplantation in a BALB/c nude mouse was cut into a block having a size of about 3 mm on each side, and this block was subcutaneously transplanted on the dorsal side of a nude mouse using a trocar. […] One hour after the administration, blood was removed from the mouse under isoflurane anesthesia, frozen embedded slices of the removed tumor and the kidneys were produced, and fluorescence was observed.

[3] = Test Example C-1 intrarenal distribution test; assay type: in vivo, nude mouse; details: 5 mg/kg as converted to 2-(2-aminoethoxy)-9-(diethylamino)-5H-benzo[a]phenoxazin-5-one, iv once, one hour after administration
Source text: as §1

[4] = test system: human colorectal cancer Col-5-JCK and Co-3-KIST, human breast cancer MC-19-JCK; details: 75 or 50 mg/kg as converted to Ganetespib, iv once, compared to Comparative Example B-1
Description: The tumor volume was determined by measuring the major axis (L: mm) and the minor axis (W: mm) of the tumor, and calculating the volume by the calculation formula: (L×W^2)/2.

[5] = test system: human pancreatic cancer BxPC3; test: Test Example A-1 intratumor distribution test; assay type: in vivo, nude mouse; details: 50 mg/kg as converted to 7-ethyl-10-hydroxycamptothecin, iv once, 30 minutes after administration
Source text: Thirty minutes after the administration, blood was removed from the mouse under isoflurane anesthesia, frozen embedded slices of the removed tumor were produced, and fluorescence was observed.

[6] = Test Example A-2 intrarenal distribution test; assay type: in vivo, C.B-17SCID mouse; details: 50 mg/kg as converted to 7-ethyl-10-hydroxycamptothecin, iv once, 30 minutes after administration

2-(2-aminoethoxy)-9-(diethylamino)-5H-benzo[a]phenoxazin-5-one Conjugate of polyethylene glycol (2 Kilodaltons)-α,β-polyaspartic Acid (12.5 Polymer) Block Copolymer [Comparative Example C-3]
relative ratio between the light scattering intensity and the light scattering intensity of toluene ([1]; 1 mg/mL aqueous solution vs standard toluene solution under the same conditions): less than twice
self-association in aqueous solution ([1]; aqueous solution): non-associating
tissue distribution in tumor slices (fluorescence) [2]: migration and accumulation in the tumor tissue was low
tissue distribution in kidney slices (fluorescence) [3]: fluorescence was observed in the renal tubules

4-isopropyl-6-(4-(1-methyl-1H-indol-5-yl)-5-methylene-4,5-dihydro-1H-1,2,4-triazol-3-yl)benzene-1,3-diol Conjugate of polyethylene glycol (2 Kilodaltons)-polyglutamic Acid (7.9 Polymer) Block Copolymer [Example B-1]
antitumor effect [4]: superior effect in both subcutaneous tumor models at the same dose

7-ethyl-10-hydroxycamptothecin (EHC) and 2-(2-aminoethoxy)-9-(diethylamino)-5H-benzo[a]phenoxazin-5-one Conjugate of polyethylene glycol (2 Kilodaltons)-polyglutamic Acid (7.6 Polymer) Block Copolymer [Example A-4]
tissue distribution in tumor slices (fluorescence) [5]: could penetrate into deep parts of a tumor tissue
tissue distribution in kidney slices (fluorescence) [6]: fluorescent signals were observed in the blood vessels and the renal tubules of the kidneys

7-ethyl-10-hydroxycamptothecin (EHC) and 2-(2-aminoethoxy)-9-(diethylamino)-5H-benzo[a]phenoxazin-5-one Conjugate of polyethylene glycol (12 Kilodaltons)-polyglutamic Acid (25 Polymer) Block Copolymer [Comparative Example A-4, reference compound]
tissue distribution in tumor slices (fluorescence) [5]: did not penetrate into deep parts of the tumor tissue
tissue distribution in kidney slices (fluorescence) [6]: fluorescence was not recognized in areas other than the blood vessels of the kidneys
